Experimental findings from patent US20180134786A1 (TOHOKU UNIVERSITY, published 2018) are described below.

The target of experiment [1] is T1, human podocalyxin expressed on cancer cells (human, UniProt O00592 23-558).
T1 construct: Podocalyxin on cancer cells; also called hPODXL; PODXL
T1 sequence: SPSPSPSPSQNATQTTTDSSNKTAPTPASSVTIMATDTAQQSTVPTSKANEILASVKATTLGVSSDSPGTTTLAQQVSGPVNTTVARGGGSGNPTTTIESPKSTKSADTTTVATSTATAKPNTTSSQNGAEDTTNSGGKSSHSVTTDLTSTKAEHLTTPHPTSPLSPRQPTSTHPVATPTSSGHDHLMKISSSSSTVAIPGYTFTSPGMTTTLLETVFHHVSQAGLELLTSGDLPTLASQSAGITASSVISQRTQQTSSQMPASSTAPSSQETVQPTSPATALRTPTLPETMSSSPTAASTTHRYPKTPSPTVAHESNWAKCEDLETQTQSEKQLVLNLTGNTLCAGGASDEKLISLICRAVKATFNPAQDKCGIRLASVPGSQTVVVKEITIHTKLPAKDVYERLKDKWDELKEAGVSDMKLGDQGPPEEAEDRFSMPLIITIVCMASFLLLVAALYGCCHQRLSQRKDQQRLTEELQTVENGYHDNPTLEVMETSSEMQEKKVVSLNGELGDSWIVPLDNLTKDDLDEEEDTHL
The experiment can be described thus: immunohistochemistry on breast cancer tissue array, 5 µg/mL. As for the experimental part: Various paraffin sections were deparaffined in xylene and ethanol solutions. The resulting sections were subjected to antigen activation in an autoclave by using a citrate buffer having pH 6.0 (product of Dako). Endogenous peroxidase was inactivated with 3% H₂O₂. After blocking with SuperBlock (product of Thermo Fisher) at room temperature for 10 minutes, the primary antibody was reacted at a concentration of from 5 to 10 μg/mL at room temperature for one hour. After amplification using a LSAB kit (product of Dako), LSAB2 (product of Dako), or Envision+ (product of Dako), color was developed using DAB (product of Dako).
Podocalyxin is known to be expressed highly in breast cancer. PcMab-6 and an anti-podocalyxin antibody (polyclonal antibody: product of R&D) were therefore reacted with a breast cancer tissue array (product of US Biomax) at a concentration of 5 μg/mL. […] Similarly, a difference in reactivity with breast cancer between PcMab-6 and PcMab-47 was investigated. […] It has therefore been confirmed that also in Immunohistochemistry, PcMab-6 is CasMab.

In experiment [2] the target is T1, human podocalyxin expressed on cancer …. The experiment can be described thus: flow cytometry on LN229/hPODXL, CHO culture supernatant. As for the experimental part:
A CRISPR/Cas plasmid of a glycosyltransferase (FUT-8) that transfers a core fucose was introduced into CHO-s cells (product of Thermo Scientific) and CHO-s-fut8-knock out cells were established. pCAG-hIgG1hG2b/PcMab-6HVH (G418)/pCAG-hIgCK/PcMab-6LVL (zeocin) (each 2.5 μg) or pCAG-hIgG1hG2b/PcMab-47HVH (G418)/pCAG-hIgCK/PcMab-47LVL (zeocin) (each 2.5 μg) were mixed and transfected into 1×10⁵ CHO-s/fut8-knock out cells (corresponding to 1 well of a 6-well plate) by the method of Lipofectamin LTX. After 24 hours, selection of transfected cells was started on a medium containing 500 μg/mL of Zeocin and 1 mg/mL of G418. The reactivity of the culture supernatant of the selected cells with the LN229 cells having therein forcibly expressed podocalyxin (LN229/hPODXL) was confirmed by flow cytometry.

B1: PcMab-47 (antibody, mouse IgG1, kappa)
heavy: QVQLQQSAAELARPGASVKMSCKASGYTFTNYTIHWVKQRPGQGLEWIGFINPTSGYSDFNQKFKAKTTLTADKSSSTAHMQLTSLTSEDSAVYYCARLFAPAYWGQGTLVTVSAAKTTPPSVYPLAPGSAAQTNSMVTLGCLVKGYFPEPVTVTWNSGSLSSGVHTFPAVLQSDLYTLSSSVTVPSSTWPSETVTCNVAHPASSTKVDKKIVPRDCGCKPCICTVPEVSSVFIFPPKPKDVLTITLTPKVTCVVVDISKDDPEVQFSWFVDDVEVHTAQTQPREEQFNSTFRSVSELPIMHQDWLNGKEFKCRVNSAAFPAPIEKTISKTKGRPKAPQVYTIPPPKEQMAKDKVSLTCMITDFFPEDITVEWQWNGQPAENYKNTQPIMDTDGSYFVYSKLNVQKSNWEAGNTFTCSVLHEGLHNHHTEKSLSHSPGK
light: QIVLTQSPAIMSASLGERVTMYCTASSSVSSSYLHWYQQKPGSSPKLWIYGTSNLASGVPARFSGSGSGTSYSLTISSMEAEDAATYYCHQYHRPPLTFGAGTKLELKRADAAPTVSIFPPSSEQLTSGGASVVCFLNNFYPKDINVKWKIDGSERQNGVLNSWTDQDSKDSTYSMSSTLTLTKDEYERHNSYTCEATHKTSTSPIVKSFNRNEC
notes: Mouse monoclonal antibody; also called cancer-nonspecific anti-podocalyxin antibody
As to B1, in experiment [1], the binding result is “binds”.

B2: mouse-human chimeric PcMab-47 antibody (chPcMab-47) (antibody)
heavy: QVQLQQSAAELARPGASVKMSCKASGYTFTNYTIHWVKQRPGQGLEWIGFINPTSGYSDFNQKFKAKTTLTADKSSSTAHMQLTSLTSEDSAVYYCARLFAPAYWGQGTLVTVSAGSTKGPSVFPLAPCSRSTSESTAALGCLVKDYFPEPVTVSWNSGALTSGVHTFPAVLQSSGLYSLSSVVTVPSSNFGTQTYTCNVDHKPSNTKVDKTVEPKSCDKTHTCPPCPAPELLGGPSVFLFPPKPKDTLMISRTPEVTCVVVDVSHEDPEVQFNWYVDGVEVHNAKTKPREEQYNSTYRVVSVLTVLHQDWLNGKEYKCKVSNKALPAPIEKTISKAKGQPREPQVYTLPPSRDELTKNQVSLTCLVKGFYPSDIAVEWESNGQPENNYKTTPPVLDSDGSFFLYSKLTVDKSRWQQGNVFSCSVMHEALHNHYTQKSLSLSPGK
light: QIVLTQSPAIMSASLGERVTMYCTASSSVSSSYLHWYQQKPGSSPKLWIYGTSNLASGVPARFSGSGSGTSYSLTISSMEAEDAATYYCHQYHRPPLTFGAGTKLELKRTSTVAAPSVFIFPPSDEQLKSGTASVVCLLNNFYPREAKVQWKVDNALQSGNSQESVTEQDSKDSTYSLSSTLTLSKADYEKHKVYACEVTHQGLSSPVTKSFNRGEC
notes: VH/VL of PcMab-47 with human IgG1 CH1-hinge-CH2-CH3 and human kappa CL, expressed in CHO cells; The entries may include the signal peptide; also called chPcMa47
With B2, the binding result in experiment [2] was “binds”.
